Test results from the Immune Epitope Database (IEDB).

What was measured:
[1] = target: HLA-A*11:01; assay: IEDB peptide-MHC binding, purified MHC/direct/fluorescence; filed as Kd, often an IC50 or EC50 that approximates it; ≥ and ≤ were set here for values at or beyond the usual limits of such assays
[2] = target: HLA-B*15:02; assay: as above
[3] = target: HLA-A*01:01; assay: as above
[4] = target: HLA-B*15:01; assay: as above
[5] = target: HLA-B*27:05; assay: as above
[6] = target: HLA-A*31:01; assay: as above
[7] = target: HLA-B*48:01; assay: as above
[8] = target: HLA-B*57:01; assay: as above
[9] = target: HLA-A*68:02; assay: as above
[10] = target: HLA-A*69:01; assay: as above
[11] = target: HLA-B*46:01; assay: as above
[12] = target: HLA-B*08:01; assay: as above
[13] = target: HLA-A*02:01; assay: as above
[14] = target: HLA-B*15:09; assay: as above
[15] = target: HLA-B*58:01; assay: as above
[16] = target: HLA-B*07:02; assay: as above
[17] = target: HLA-B*15:17; assay: IEDB peptide-MHC binding, purified MHC/competitive/fluorescence; filed as Kd, often an IC50 or EC50 that approximates it; ≥ and ≤ were set here for values at or beyond the usual limits of such assays; details: source organism: Francisella tularensis subsp. tularensis FSC198
[18] = target: HLA-A*30:01; assay: as above; details: source organism: Francisella tularensis subsp. tularensis FSC198
[19] = target: HLA-B*35:01; assay: as above; details: source organism: Francisella tularensis subsp. tularensis FSC198
[20] = target: HLA-A*26:02; assay: as above; details: source organism: Francisella tularensis subsp. tularensis FSC198
[21] = target: HLA-A*02:03; assay: as above; details: source organism: Francisella tularensis subsp. tularensis FSC198
[22] = target: HLA-C*05:01; assay: IEDB peptide-MHC binding, purified MHC/direct/fluorescence; filed as Kd, often an IC50 or EC50 that approximates it; ≥ and ≤ were set here for values at or beyond the usual limits of such assays
[23] = target: HLA-C*08:02; assay: as above
[24] = target: HLA-B*51:01; assay: IEDB peptide-MHC binding, purified MHC/competitive/fluorescence; filed as Kd, often an IC50 or EC50 that approximates it; ≥ and ≤ were set here for values at or beyond the usual limits of such assays; details: source organism: Yersinia pestis Nepal516
[25] = target: HLA-B*15:01; assay: as above; details: source organism: Yersinia pestis Nepal516
[26] = target: HLA-A*02:01; assay: as above; details: source organism: Yersinia pestis Nepal516
[27] = target: HLA-B*58:01; assay: as above; details: source organism: Yersinia pestis Nepal516
[28] = target: HLA-B*39:01; assay: as above; details: source organism: Yersinia pestis Nepal516
[29] = target: HLA-B*15:17; assay: IEDB peptide-MHC binding, purified MHC/direct/fluorescence; filed as Kd, often an IC50 or EC50 that approximates it; ≥ and ≤ were set here for values at or beyond the usual limits of such assays
[30] = target: HLA-A*03:01; assay: as above; details: source organism: Brucella abortus
[31] = target: HLA-B*08:02; assay: as above
[32] = target: HLA-A*26:02; assay: as above
[33] = target: HLA-B*08:03; assay: as above; details: source organism: Mycobacterium tuberculosis str. Haarlem
[34] = target: HLA-A*26:01; assay: as above; details: source organism: Mycobacterium tuberculosis str. Haarlem
[35] = target: HLA-B*40:01; assay: as above; details: source organism: Mycobacterium tuberculosis
[36] = target: HLA-B*18:01; assay: as above; details: source organism: Mycobacterium tuberculosis
[37] = target: HLA-A*26:03; assay: as above; details: source organism: Mycobacterium tuberculosis str. Haarlem
[38] = target: HLA-A*11:01; assay: IEDB peptide-MHC binding, purified MHC/competitive/fluorescence; ≥ and ≤ were set here for values at or beyond the usual limits of such assays; details: source organism: Zaire ebolavirus
[39] = target: HLA-B*15:01; assay: as above; details: source organism: Zaire ebolavirus
[40] = target: HLA-A*02:01; assay: as above; details: source organism: Zaire ebolavirus
[41] = target: HLA-A*24:02; assay: as above; details: source organism: Zaire ebolavirus
[42] = target: HLA-B*07:02; assay: as above; details: source organism: Zaire ebolavirus
[43] = target: HLA-C*03:03; assay: IEDB peptide-MHC binding, purified MHC/direct/fluorescence; filed as Kd, often an IC50 or EC50 that approximates it; ≥ and ≤ were set here for values at or beyond the usual limits of such assays; details: source organism: Mycobacterium tuberculosis C
[44] = target: HLA-A*02:12; assay: as above; details: source organism: Francisella tularensis subsp. tularensis FSC033
[45] = target: HLA-A*02:19; assay: as above; details: source organism: Francisella tularensis subsp. tularensis FSC033
[46] = target: HLA-C*12:03; assay: as above; details: source organism: Francisella tularensis subsp. tularensis WY96-3418
[47] = target: HLA-A*02:11; assay: as above; details: source organism: Francisella tularensis subsp. tularensis FSC033
[48] = source organism: Francisella tularensis subsp. holarctica LVS
[49] = source organism: Francisella tularensis subsp. tularensis FSC033
[50] = source organism: Yersinia pestis Nepal516
[51] = source organism: Brucella abortus
[52] = source organism: Brucella suis 1330
[53] = source organism: Mycobacterium tuberculosis
[54] = source organism: Mycobacterium tuberculosis str. Haarlem
[55] = source organism: Mycobacterium tuberculosis C

Sequence: FQVNRFTGY
- Kd [1, 48]: ≥ 20 µM
- Kd [2, 49]: 0.008 µM
- Kd [3, 48]: ≥ 20 µM
- Kd [4, 48]: 0.0097 µM
- Kd [5, 48]: 0.632 µM
- Kd [6, 48]: ≥ 20 µM
- Kd [7, 48]: ≥ 20 µM
- Kd [8, 48]: ≥ 20 µM
- Kd [9, 48]: ≥ 20 µM
- Kd [10, 48]: ≥ 20 µM
- Kd [11, 48]: ≥ 20 µM
- Kd [12, 49]: ≥ 20 µM
- Kd [13, 48]: ≥ 20 µM
- Kd [14, 49]: ≥ 20 µM
- Kd [15, 48]: ≥ 20 µM
- Kd [16, 48]: ≥ 20 µM
- Kd [17]: ≥ 20 µM
- Kd [18]: ≥ 20 µM
- Kd [19]: 4.41 µM
- Kd [20]: 0.113 µM
- Kd [21]: ≥ 20 µM

Sequence: FSYNVAYAI
- Kd [22, 50]: 4.96 µM
- Kd [23, 50]: 0.182 µM
- Kd [24]: 2.27 µM
- Kd [25]: ≥ 20 µM
- Kd [26]: 0.0296 µM
- Kd [27]: 0.0363 µM
- Kd [28]: 0.469 µM

Sequence: GLAEKPNDY
- Kd [29, 51]: ≥ 20 µM
- Kd [1, 51]: ≥ 20 µM
- Kd [2, 51]: 2 µM
- Kd [3, 51]: ≥ 20 µM
- Kd [4, 51]: 0.947 µM
- Kd [5, 51]: ≥ 20 µM
- Kd [6, 51]: ≥ 20 µM
- Kd [7, 51]: ≥ 20 µM
- Kd [8, 51]: ≥ 20 µM
- Kd [30]: ≥ 20 µM
- Kd [9, 51]: ≥ 20 µM
- Kd [31, 52]: ≥ 20 µM
- Kd [10, 51]: ≥ 20 µM
- Kd [11, 51]: ≥ 20 µM
- Kd [13, 51]: ≥ 20 µM
- Kd [32, 52]: ≥ 20 µM
- Kd [14, 52]: ≥ 20 µM
- Kd [15, 51]: ≥ 20 µM
- Kd [16, 51]: ≥ 20 µM

Sequence: KYFVRSTEK
- Kd [29, 53]: ≥ 20 µM
- Kd [1, 53]: 1.79 µM
- Kd [3, 53]: ≥ 20 µM
- Kd [33]: ≥ 20 µM
- Kd [4, 53]: ≥ 20 µM
- Kd [5, 53]: ≥ 20 µM
- Kd [6, 53]: 0.0021 µM
- Kd [7, 53]: ≥ 20 µM
- Kd [8, 53]: ≥ 20 µM
- Kd [9, 53]: ≥ 20 µM
- Kd [31, 54]: ≥ 20 µM
- Kd [11, 53]: ≥ 20 µM
- Kd [34]: ≥ 20 µM
- Kd [12, 54]: ≥ 20 µM
- Kd [13, 53]: ≥ 20 µM
- Kd [32, 54]: ≥ 20 µM
- Kd [35]: ≥ 20 µM
- Kd [15, 53]: ≥ 20 µM
- Kd [16, 53]: ≥ 20 µM
- Kd [36]: ≥ 20 µM
- Kd [37]: ≥ 20 µM

Sequence: RTNFLIKFL
- IC50 [38]: ≥ 589 µM
- IC50 [39]: ≥ 725 µM
- IC50 [40]: ≥ 165 µM
- IC50 [41]: 10.2 µM
- IC50 [42]: ≥ 275 µM

Sequence: SPQNHSETA
- IC50 [42]: 45.2 µM

Sequence: YLDAIQQPV
- Kd [22, 55]: 0.025 µM
- Kd [23, 55]: ≤ 0.001 µM
- Kd [43]: 0.256 µM

Sequence: YLYPWSLGL
- Kd [44]: 0.002 µM
- Kd [45]: 0.012 µM
- Kd [13, 48]: ≤ 0.001 µM
- Kd ([23]; source organism: Francisella tularensis subsp. tularensis WY96-3418): ≥ 20 µM
- Kd [46]: 0.004 µM
- Kd [47]: ≤ 0.001 µM
